The target of the test is T1, Streptococcus pyogenesのStreptolysin O(SLO) (Streptococcus pyogenes, UniProt P0C0I3 34-571).
T1 sequence: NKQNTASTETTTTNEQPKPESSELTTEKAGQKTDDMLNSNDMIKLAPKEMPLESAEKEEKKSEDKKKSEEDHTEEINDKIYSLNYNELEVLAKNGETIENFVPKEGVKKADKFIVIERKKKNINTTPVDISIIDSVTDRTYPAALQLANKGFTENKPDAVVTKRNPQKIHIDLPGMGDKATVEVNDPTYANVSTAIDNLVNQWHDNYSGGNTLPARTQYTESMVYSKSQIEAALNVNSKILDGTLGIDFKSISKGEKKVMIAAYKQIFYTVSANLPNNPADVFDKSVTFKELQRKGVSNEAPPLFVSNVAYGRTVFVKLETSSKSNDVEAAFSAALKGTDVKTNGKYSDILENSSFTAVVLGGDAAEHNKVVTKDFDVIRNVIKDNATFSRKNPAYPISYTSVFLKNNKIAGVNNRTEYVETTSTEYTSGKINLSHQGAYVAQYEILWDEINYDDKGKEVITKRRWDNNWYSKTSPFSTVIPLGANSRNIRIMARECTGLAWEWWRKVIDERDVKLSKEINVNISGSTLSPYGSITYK
As to the kind of experiment: ELISA, plate coated with 1 μg/mL SLO, anti-mouse IgG-HRP detection. (In general: ELISA stands for enzyme-linked immunosorbent assay.)

B1: 抗体HS2 (antibody, V domains shown)
V domain 1: VQLQESGPELVKPGASVKISCKASGYAFSSSWMNWVRQRPGQGLEWIGRIYPGDGDTNYNGKFKGKATLTADKSSNAAYMHLSSLTSVDSAVYFCARRNYGSGFLYYFDYWGQGTTLTV
V domain 2: QIVLSQFPAILSASPGEKVTMTCRASSSVSYMHWYQQKPGSSPKLWIYATSDLASGVPARFSGSGSGTSYSLTISRVEAEDAATYYCQQWSSNPPTFGGGTKL
For B1, the binding result is given as “no binding”.

B2: 抗体HS3 (antibody, V domains shown)
VH: EVQLQESGPDLVKPSQSLSLICTVTGYSITSGYNWHWIRQFPGNKLEWMAYIDYTGSTHYNPSLKSRISITRDTSKNHFFLQLNSVTTEDTATYYCARDYGNYEWSFDVWGAGTTVTVSS
VL: DIQMNQSPSSLSASLGDTITITCHASQNINVWLSWYQQKPGNIPKLLIYKASNLHTGVPSRFSGSGSGTGFTLTISSLQPEDIATYYCQQGQSYPLTFGAGTKL
Turning to B2, the binding result was “no binding”.

These data come from patent JP2020117470A (dated 2020).
